Source: patent US6111073A, “Tyrosine phosphorylated cleavage furrow-associated proteins (PSTPIPs)” (Genentech, Inc., priority 1998, dated 2000)

What was measured:
[1] = target: in vitro transcribed and translated PSTPIP (murine); assay: peptide competition of the pull-down of in vitro translated PSTPIP by GST-PST-rich+CTH PTP HSCF
[2] = test system: tyrosine phosphorylation of endogenous PSTPIP in Baf3 cells; assay: Tyrosine phosphorylation of endogenous PSTPIP in Baf3 cells (immunoprecipitation, anti-phosphotyrosine blot); format: cell-based, murine
Experimental: Baf3 cells were Iysed in 1% Triton, 50 mM HEPES, 10% glycerol and 5 mM EDTA containing 1 μg/ml aprotinin, PMSF, leupeptin and pepstatin with 1 mM Sodium Vanadate and 10 mM lodoacetic acid. Cells were treated with 0.1 mM Pervanadate for 4 hours before Iysis. Immunoprecipitations were performed in the vanadate-containing Iysis buffer using 1 μg/ml anti-PSTPIP polyclonal antibody and 400 μg of Iysate protein at 4° C. overnight. Western blots were performed using 1 μg/ml affinity purified anti-PSTPIP or 1:5000 dilution of commercial 4G10 anti-phosphotyrosine monoclonal (Upstate Biotech). Signal was detected by HRPO-ECL reagents (Pierce). The C221 -S mutant was as previously described (Cheng et al., (1996) supra). The PTP HSCF D197 -A mutant was generated using PCR. Mutagenesis primer D197A.F ([…]) (SEQ ID NO:24), corresponding to nucleotide 591, and primer D197A.R ([…]) (SEQ ID NO:25) which corresponds to the stop codon, were used in PCR to generate a fragment that could be cut with Mscl and Xbal. pRK.HA.38 WT, a plasmid which encoded the wild type enzyme under the control of the cytomegalovirus promoter (Cheng et al., (1996) supra), was digested with Clal and Mscl and the resulting 600 bp fragment was ligated with the Mscl-Xbal PCR fragment into the Clal and Xbal sites of pRK.tkneo. […]

[3] = target: T1, interaction between PTP HSCF and PSTPIP (Mus musculus, UniProt P97814); assay: Peptide inhibition of in vitro binding: GST-PST-rich+CTH PTP HSCF precipitating in vitro translated PSTPIP; parameters: species or system murine; conditions: FIG. 4D
T1 construct: The longest two hybrid clone was used to isolate a full length cDNA from the original Baf3 two hybrid library; made in house; host or cells: PSTPIP: in vitro transcribed/translated (Promega TnT rabbit reticulocyte system); GST-PTP HSCF fusion: E. coli DH5-alpha, pGEX-4T-2
T1 sequence (P97814 1-415): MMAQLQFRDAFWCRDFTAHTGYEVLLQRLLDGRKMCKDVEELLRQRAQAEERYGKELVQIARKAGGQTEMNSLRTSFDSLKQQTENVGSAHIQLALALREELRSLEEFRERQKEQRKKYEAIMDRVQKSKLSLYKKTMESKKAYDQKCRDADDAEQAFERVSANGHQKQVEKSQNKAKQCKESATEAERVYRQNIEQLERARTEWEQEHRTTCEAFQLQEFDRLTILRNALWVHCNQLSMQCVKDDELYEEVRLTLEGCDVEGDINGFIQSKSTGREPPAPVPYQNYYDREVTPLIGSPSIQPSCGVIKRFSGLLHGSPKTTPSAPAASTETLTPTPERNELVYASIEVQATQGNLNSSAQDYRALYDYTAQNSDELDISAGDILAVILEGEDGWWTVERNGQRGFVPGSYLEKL
Experimental: The binding was carried out according to the method of Wong and Johnson (Wong et al., J. Biol. Chem. 271(35):20981-20984 (1996)). Briefly, 1 μg of plasmid with either the PSTPIP protein or PTP HSCF under the control of the Sp6 promoter was in vitro transcribed/translated using the Promega TnT Rabbit Reticulocyte system. Samples were diluted in 50 mM HEPES, pH 7.2, 1% triton X 100, 10% glycerol, 100 mM NaCI, 5 mM EDTA and 2 μg/ml each of leupeptin, pepstatin, aprotinin, and PMSF. […] This was reacted for 1 hour at 4° C. and then the resin washed 6 times in HEPES/Triton binding buffer before SDS gel electrophoresis. The peptides were synthesized on an automated Milligen 9050 Peptide Synthesizer using standard solid phase chemistry with FMOC protected amino acids on a p-alkoxybenzyl alcohol resin. Dried peptides were re-suspended in the HEPES/Triton Binding buffer at a concentration of 10 mg/ml. Peptide inhibition was performed by adding the peptide first to the in vitro translation product and then the GST-fusion followed by the GSH-Sepharose. The binding/washing steps were as previously described. The peptides synthesized and the PTPs they were derived from were: […]

PTP HSCF = assay: In vitro binding assay: GST fusion precipitation of in vitro translated PTP HSCF; conditions: GST fusion protein ~1 microgram per ml or ~1.5 micromolar; compared with polyclonal anti-PTP HSCF antibody; FIG. 3
Experimental: The binding was carried out according to the method of Wong and Johnson (Wong et al., J. Biol. Chem. 271(35):20981-20984 (1996)). Briefly, 1 μg of plasmid with either the PSTPIP protein or PTP HSCF under the control of the Sp6 promoter was in vitro transcribed/translated using the Promega TnT Rabbit Reticulocyte system. Samples were diluted in 50 mM HEPES, pH 7.2, 1% triton X 100, 10% glycerol, 100 mM NaCI, 5 mM EDTA and 2 μg/ml each of leupeptin, pepstatin, aprotinin, and PMSF. […] This was reacted for 1 hour at 4° C. and then the resin washed 6 times in HEPES/Triton binding buffer before SDS gel electrophoresis. The peptides were synthesized on an automated Milligen 9050 Peptide Synthesizer using standard solid phase chemistry with FMOC protected amino acids on a p-alkoxybenzyl alcohol resin. Dried peptides were re-suspended in the HEPES/Triton Binding buffer at a concentration of 10 mg/ml. Peptide inhibition was performed by adding the peptide first to the in vitro translation product and then the GST-fusion followed by the GSH-Sepharose. The binding/washing steps were as previously described. The peptides synthesized and the PTPs they were derived from were:
In order to characterize the regions involved with the binding between PTP HSCF and PSTPIP, a rapid and direct in vitro binding assay was performed. […]

[4] = target: T2, in vitro transcribed and translated PSTPIP (murine); assay: peptide competition of the pull-down of in vitro translated PSTPIP by GST-PST-rich+CTH PTP HSCF
T2 chain: T1 sequence (P97814 1-415)

## PXXP-HSCF peptide (PTP HSCF 432-451)
[1]
  concentration at which the peptide blocks the interaction (as low as): 800 nM

## pervanadate
[2]; anti-phosphotyrosine blot, FIG. 6A
  phosphotyrosine content of PSTPIP in the absence versus presence of the inhibitor: lower phosphotyrosine content

## PXXP-PEP peptide (PTP PEP 782-800)
[1]
  concentration at which the peptide blocks the interaction (as low as): 800 nM

## PXXP-PEST peptide (PTP PEST 761-780)
[1]
  concentration at which the peptide blocks the interaction (as low as): 800 nM

## [O]=[V]([O-])([O-])[O-] [vanadate]
[2]; with tyrosine phosphatase inhibitor, FIG. 6
  tyrosine phosphorylation of endogenous PSTPIP: significantly enhanced

## GGVLRSISVPAPPTLPMADT [control peptide]
[3]
  ability to block the PTP HSCF-PSTPIP interaction: completely unable to block the interaction

B1: GST PSTPIP: GST fusion protein containing full-length PSTPIP (amino acids 2-415) (protein)
chain: MAQLQFRDAFWCRDFTAHTGYEVLLQRLLDGRKMCKDVEELLRQRAQAEERYGKELVQIARKAGGQTEMNSLRTSFDSLKQQTENVGSAHIQLALALREELRSLEEFRERQKEQRKKYEAIMDRVQKSKLSLYKKTMESKKAYDQKCRDADDAEQAFERVSANGHQKQVEKSQNKAKQCKESATEAERVYRQNIEQLERARTEWEQEHRTTCEAFQLQEFDRLTILRNALWVHCNQLSMQCVKDDELYEEVRLTLEGCDVEGDINGFIQSKSTGREPPAPVPYQNYYDREVTPLIGSPSIQPSCGVIKRFSGLLHGSPKTTPSAPAASTETLTPTPERNELVYASIEVQATQGNLNSSAQDYRALYDYTAQNSDELDISAGDILAVILEGEDGWWTVERNGQRGFVPGSYLEKL
PTP HSCF
  efficiency of precipitating in vitro translated PTP HSCF: more efficient at precipitating the phosphatase

## GGVLRSISVPAPPTLPMADT [PXXP-CONTROL peptide (PTP HSCF 334-353)]
[4]
  binding result: no binding
